Experiment [1] deals with MSLN expressed on HEK293T cells (HEK293T MSLN细胞) (UniProt Q13421). As to the kind of experiment: flow cytometry on HEK293T cells expressing MSLN, anti-human IgG PE detection. (In general: In flow cytometry, cells or beads pass a laser one at a time.)
Experiment [2] deals with T1, 人MSLN.His抗原 (MSLN.His蛋白, 义翘神州科技股份有限公司, MSN-H5223) (human, UniProt Q13421 296-580, limits assumed).
T1 construct: Bought protein; not shown: His tag
As to the kind of experiment: SPR (Biacore), antibody captured on protein A chip, MSLN.His as analyte at 5 concentrations.

Broadly, the EC50 is the concentration that produces a half-maximal response. A lower EC50 goes with an effect from little substance. Usually Kd stands for the constant that tells how readily two partners part at equilibrium. Low values mean higher affinity, high ones lower affinity. The koff is the rate constant with which the complex falls apart. Read a low koff as slow dissociation. The term kon denotes the rate constant with which the complex forms.

T1 sequence (Q13421 other isoform, or with tags, fused parts or gaps limits assumed): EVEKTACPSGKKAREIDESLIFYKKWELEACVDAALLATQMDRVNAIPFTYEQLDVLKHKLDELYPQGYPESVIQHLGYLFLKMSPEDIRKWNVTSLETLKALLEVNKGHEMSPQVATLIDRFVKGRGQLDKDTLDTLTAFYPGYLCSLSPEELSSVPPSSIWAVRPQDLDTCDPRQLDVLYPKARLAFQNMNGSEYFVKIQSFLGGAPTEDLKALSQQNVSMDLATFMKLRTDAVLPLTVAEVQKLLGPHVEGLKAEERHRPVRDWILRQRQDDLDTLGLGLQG

B1: M2339 (重链抗体, 纳米抗体构建到pCDNA3.4-IgG4载体上表达) (Fc fusion)
heavy: QLQLGASGGGLVQPGGSLRLSCALSGFTLRELDEFAIGWFRQAPGKEREGVSCISGTGGITHYADSVKGRFTISRDIAKTTVYLQMNSLNSEDTAVYYCAADERCTDRLIRPPTYWGQGTQVTVSS
notes: also called 候选抗体; not shown: IgG4 constant part from the vector pCDNA3.4-IgG4
As for B1, in experiment [1], the half-maximal effective concentration (EC50) was 3.68 nM. In experiment [2], this molecule registered a Kd of 0.264 nM, an off-rate constant (koff) of 1.82e-05 s⁻¹ and a kon of 69000 M⁻¹ s⁻¹.

Values taken from patent CN114685666A (ZHEJIANG NANOMETER ANTIBODY TECH CENTER LIMITED COMPANY, dated 2022).
